For experiment [1], the target named is T1, KRAS G12V peptide on HLA-A*11:01 (human).
T1 peptide: VVVGAVGVGK
In words: CD69 by flow cytometry on TCR1-transduced Jurkat cells; K562-A*11:01 loaded with peptide at 10^-11 to 10^-6 M; FIG. 4C; full-length, on cells. On the procedure:
(§1) EC₅₀ values of different TCRs were assessed by spot numbers of IFN-γ release and CD69 expression after co-culture of specific TCR-transduced T cells with target cells loaded with graded concentrations of KRAS G12V-9 peptide ([…]) (SEQ ID NO: 91).
For orientation: Flow cytometry measures light scatter and fluorescence of single cells or particles in a stream.

Experiment [2] addresses T2, KRAS G12V peptide on HLA-A*11:01 (human).
T2 peptide: VVGAVGVGK
Described as above. As for the experimental part: as §1

Experiment [3] addresses HLA-A*11:01 / KRAS G12V 10-mer peptide … complex (human). Kind of experiment: cell-based or functional assay.
Experiment [4] addresses HLA-A*11:01 / KRAS G12V 9-mer peptide … complex (human). Kind of experiment: cell-based or functional assay.
The target of experiment [5] is T2, KRAS G12V peptide on HLA-A*11:01. Kind of experiment: multimer staining.
Experiment [6] has as its target T1, KRAS G12V peptide on HLA-A*11:01. Kind of experiment: killing. An excerpt: A lentiviral vector containing the TCR gene of the present invention was constructed and used to transduce T cells. The T cells transduced with different TCRs were co-cultured with: (1) HLA-A*11:01-expressing K562 cells loaded with different peptides (G12V-9 peptide: […] (SEQ ID NO: 91), G12V-10 peptide: […] (SEQ ID NO: 92), or WT peptide: […] (SEQ ID NO: 93)+[…] (SEQ ID NO: 94)); and (2) BxPC3 cells expressing HLA-A*11:01, co-expressing HLA-A*11:01 and KRAS G12V, or co-expressing HLA-A*11:01 and KRAS G12D (effector cell:target cell=5:1). After co-incubation for 16 h, the killing ability of T cells against target cells was evaluated by detecting LDH release. Statistical data are shown in FIGS. 2A and 2B (GraphPad Prism 8.0.1 software).

B1: TCR1 (TCR, V domains shown)
Valpha: LAKTTQPISMDSYEGQEVNITCSHNNIATNDYITWYQQFPSQGPRFIIQGYKTKVTNEVASLFIPADRKSSTLSLPRVSLSDTAVYYCLVGALSSSWYGQNFVFGPGTRLSVLP
Vbeta: DTAVSQTPKYLVTQMGNDKSIKCEQNLGHDTMYWYKQDSKKFLKIMFSYNNKELIINETVPNRFSPKSPDKAHLNLHINSLELGDSAVYFCASSQSGAQDGYTFGSGTRLTVV
On to B1, for which the EC50 of peptide in experiment [1] amounted to 31.3 nM; in experiment [2] it was 2.24 nM.

B2: TCR1 (TCR)
TCR alpha: SLAKTTQPISMDSYEGQEVNITCSHNNIATNDYITWYQQFPSQGPRFIIQGYKTKVTNEVASLFIPADRKSSTLSLPRVSLSDTAVYYCLVGALSSSWYGQNFVFGPGTRLSVLPYIQNPDPAVYQLRDSKSSDKSVCLFTDFDSQTNVSQSKDSDVYITDKTVLDMRSMDFKSNSAVAWSNKSDFACANAFNNSIIPEDTFFPSPESSCDVKLVEKSFETDTNLNFQNLSVIGFRILLLKVAGFNLLMTLRLWSS
TCR beta: DTAVSQTPKYLVTQMGNDKSIKCEQNLGHDTMYWYKQDSKKFLKIMFSYNNKELIINETVPNRFSPKSPDKAHLNLHINSLELGDSAVYFCASSQSGAQDGYTFGSGTRLTVVEDLNKVFPPEVAVFEPSEAEISHTQKATLVCLATGFFPDHVELSWWVNGKEVHSGVSTDPQPLKEQPALNDSRYCLSSRLRVSATFWQNPRNHFRCQVQFYGLSENDEWTQDRAKPVTQIVSAEAWGRADCGFTSVSYQQGVLSATILYEILLGKATLYAVLVSALVLMAMVKRKDF
In experiment [3], B2 displayed an EC50 of CD69 expression of TCR-transduced Jurkat cells after co-culture with K562-A*11:01 loaded with graded peptide concentrations (FIG. 4C) of 31.3 nM; a fold difference of EC50 (CD69 expression) between the 10-mer and the 9-mer peptide of 10 fold. Besides, the EC50 of CD69 expression of TCR-transduced Jurkat cells after co-culture with K562-A*11:01 loaded with graded peptide concentrations (FIG. 4C) in experiment [4] was 2.24 nM.

B3: TCR6 (TCR, V domains shown)
Valpha: AQSVTQPDIHITVSEGASLELRCNYSYGATPYLFWYVQSPGQGLQLLLKYFSGDTLVQGIKGFEAEFKRSQSSFNLRKPSVHWSDAAEYFCAVGASREYGNKLVFGAGTILRVKS
Vbeta: NAGVMQNPRHLVRRRGQEARLRCSPMKGHSHVYWYRQLPEEGLKFMVYLQKENIIDESGMPKERFSAEFPKEGPSILRIQQVVRGDSAAYFCASSPGGLLHFGNGTRLTVT
On to B3, for which the binding result in experiment [5] and in experiment [6] was “recognises” throughout.

B4: TCR3 (TCR, V domains shown)
Valpha: DQQVKQNSPSLSVQEGRISILNCDYTNSMFDYFLWYKKYPAEGPTFLISISSIKDKNEDGRFTVFLNKSAKHLSLHIVPSQPGDSAVYFCAANSGYALNFGKGTSLLVTP
Vbeta: KAGVTQTPRYLIKTRGQQVTLSCSPISGHRSVSWYQQTPGQGLQFLFEYFSETQRNKGNFPGRFSGRQFSNSRSEMNVSTLELGDSALYLCASSLGGVGNEQFFGPGTRLTVL
For the molecule B4, the binding result in experiment [5] and in experiment [6] was “recognises” in each case.

B5: TCR2 (TCR, V domains shown)
Valpha: DQQVKQNSPSLSVQEGRISILNCDYTNSMFDYFLWYKKYPAEGPTFLISISSIKDKNEDGRFTVFLNKSAKHLSLHIVPSQPGDSAVYFCAAKDNAGNMLTFGGGTRLMVKP
Vbeta: KAGVTQTPRYLIKTRGQQVTLSCSPISGHRSVSWYQQTPGQGLQFLFEYFSETQRNKGNFPGRFSGRQFSNSRSEMNVSTLELGDSALYLCASSLGTAEAFFGQGTRLTVV
As to B5, the binding result in experiment [5] and in experiment [6] was “recognises” throughout.

B6: TCR7 (TCR, V domains shown)
Valpha: DQQVKQNSPSLSVQEGRISILNCDYTNSMFDYFLWYKKYPAEGPTFLISISSIKDKNEDGRFTVFLNKSAKHLSLHIVPSQPGDSAVYFCAGKTNTGNQFYFGTGTSLTVIP
Vbeta: KAGVTQTPRYLIKTRGQQVTLSCSPISGHRSVSWYQQTPGQGLQFLFEYFSETQRNKGNFPGRFSGRQFSNSRSEMNVSTLELGDSALYLCASSSGHPEAFFGQGTRLTVV
Regarding B6, the binding result in experiment [5] and in experiment [6] was “recognises” in each case.

B7: TCR8 (TCR, V domains shown)
Valpha: SQQGEEDPQALSIQEGENATMNCSYKTSINNLQWYRQNSGRGLVHLILIRSNEREKHSGRLRVTLDTSKKSSSLLITASRAADTASYFCATDAGGGADGLTFGKGTHLIIQP
Vbeta: DSGVTQTPKHLITATGQRVTLRCSPRSGDLSVYWYQQSLDQGLQFLIQYYNGEERAKGNILERFSAQQFPDLHSELNLSSLELGDSALYFCASSESRDSGNTIYFGEGSWLTVV
Regarding B7, the binding result in experiment [5] and in experiment [6] was “recognises” in each case.

B8: TCR9 (TCR, V domains shown)
Valpha: SQQGEEDPQALSIQEGENATMNCSYKTSINNLQWYRQNSGRGLVHLILIRSNEREKHSGRLRVTLDTSKKSSSLLITASRAADTASYFCATDSGGGADGLTFGKGTHLIIQP
Vbeta: DSGVTQTPKHLITATGQRVTLRCSPRSGDLSVYWYQQSLDQGLQFLIQYYNGEERAKGNILERFSAQQFPDLHSELNLSSLELGDSALYFCASTPGRDSGNTIYFGEGSWLTVV
Regarding B8, the binding result in experiment [5] and in experiment [6] was “recognises” in each case.

B9: TCR4 (TCR, V domains shown)
Valpha: QKEVEQNSGPLSVPEGAIASLNCTYSDRGSQSFFWYRQYSGKSPELIMFIYSNGDKEDGRFTAQLNKASQYVSLLIRDSQPSDSATYLCAVERGSTLGRLYFGRGTQLTVWP
Vbeta: GAGVSQSPRYKVTKRGQDVTLRCDPISSHATLYWYQQALGQGPEFLTYFNYEAQPDKSGLPSDRFSAERPEGSISTLTIQRTEQRDSAMYRCASSLSSPTGGPINEQFFGPGTRLTVL
With B9, the binding result in experiment [5] and in experiment [6] was “recognises” each time.

B10: TCR5 (TCR, V domains shown)
Valpha: GEDVEQSLFLSVREGDSSVINCTYTDSSSTYLYWYKQEPGAGLQLLTYIFSNMDMKQDQRLTVLLNKKDKHLSLRIADTQTGDSAIYFCAESPGGGADGLTFGKGTHLIIQP
Vbeta: GAVVSQHPSWVICKSGTSVKIECRSLDFQATTMFWYRQFPKQSLMLMATSNEGSKATYEQGVEKDKFLINHASLTLSTLTVTSAHPEDSSFYICSAPRGWAAGVYGYTFGSGTRLTVV
Take B10: the binding result in experiment [5] and in experiment [6] was “recognises” in each case.

These data come from patent US20260250388A1 (published 2026).
